US20220412989A1, “COMPOSITIONS AND METHODS FOR DETECTING CELLS UNDERGOING FERROPTOSIS USING AN ANTIBODY” (THE TRUSTEES OF COLUMBIA UNIVERSITY IN THE CITY OF NEW YORK, priority 2020, published 2022)
Entries after “also recorded” stand apart in the source; their conditions may differ.

Tests used:
[1] = biological target: T1, mouse TfR1 protein (Mus musculus, UniProt Q62351); assay: Staining of mouse glioblastoma paraffin-embedded tissue
T1 construct: from tissue; host or cells: murine glioma grown from murine glioma cells injected into c57/B6 mouse brain
T1 sequence (Q62351 whole entry): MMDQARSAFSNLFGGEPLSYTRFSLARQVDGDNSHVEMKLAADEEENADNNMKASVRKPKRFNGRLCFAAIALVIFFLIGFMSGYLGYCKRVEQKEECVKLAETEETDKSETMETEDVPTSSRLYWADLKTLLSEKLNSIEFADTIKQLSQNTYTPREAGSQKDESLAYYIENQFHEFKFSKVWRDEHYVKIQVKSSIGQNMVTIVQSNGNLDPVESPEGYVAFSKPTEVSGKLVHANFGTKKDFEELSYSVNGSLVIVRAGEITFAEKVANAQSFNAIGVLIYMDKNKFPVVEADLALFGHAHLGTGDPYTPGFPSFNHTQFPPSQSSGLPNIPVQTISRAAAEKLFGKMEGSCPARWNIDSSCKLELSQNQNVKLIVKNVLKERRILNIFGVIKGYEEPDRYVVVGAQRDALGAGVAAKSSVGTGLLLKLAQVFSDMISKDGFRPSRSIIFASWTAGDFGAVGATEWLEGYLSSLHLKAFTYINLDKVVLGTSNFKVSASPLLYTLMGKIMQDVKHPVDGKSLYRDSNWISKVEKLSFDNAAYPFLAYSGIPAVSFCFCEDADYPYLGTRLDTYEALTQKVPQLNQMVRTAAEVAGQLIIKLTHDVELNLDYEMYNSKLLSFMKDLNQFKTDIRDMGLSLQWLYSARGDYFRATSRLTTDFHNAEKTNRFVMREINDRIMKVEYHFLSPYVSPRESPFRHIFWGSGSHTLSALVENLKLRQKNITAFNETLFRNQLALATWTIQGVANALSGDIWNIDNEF
Description: All procedures were performed according to the Columbia University Medical Center Institutional Animal Care and Use Committee. Murine glioma cell lines were created from tumor bearing mice. These tumors were generated by injection of a PDGF-IRES-Cre retrovirus into the subcortical white matter of mice with floxed PTEN and/or p53 (Sonabend et al., 2013). After mice reached end stage, the tumors were dissociated and primary cell cultures were created. These cells harbored the specific mutations of the original tumors, and could be re-injected to form gliomas in c57/B6 mice with high fidelity. Briefly, mice between the ages of 6-8 weeks received 50,000 murine glioma cells through stereotactic injection after being anesthetized with a ketamine/xylazine cocktail (87.5 mg/12.5 mg w/w). After cessation of toe-pinch reflex, the scalp was shaved and cleaned with serial use of betadine and 70% ethanol swabs. An incision was made and the skull was exposed. A burr hole was created, 2 mm anterior, 2 mm lateral and 2 mm deep to the right of the bregma. The cells were injected into the subcortical white matter over a period of 3 minutes (0.333 μL/min). Once the injection ceased, the needle was left in place for 1 minute before being slowly withdrawn. After tumor developed, brains were harvested and fixed in 4% paraformaldehyde and embedded in paraffin. 5 micron sections were made for staining.

[2] = tested on: TfR1 protein in HT-1080 cells; assay: Western blot of TfR1 during ferroptosis; assay type: cell-based, human; conditions: RSL3-induced and IKE-induced ferroptosis
Description: HT-1080 cells were seeded in DMEM (Corning 10-013-CM) and 10% Hi-FBS with 1% penicillin and streptomycin (PS) with 1% MEM Non-Essential Amino Acids Solution (100×) (Thermo Fisher Scientific 11140-076) 16 h prior to use. DMSO or 1 μM of RSL3 was added and incubated for 4 h. Following treatment, the medium was aspirated from each dish and cells were washed twice with PBS. Cells were lysed with 70 μl lysis buffer (RIPA buffer from ThermoFisher, cat. 89900, 1 mM EDTA, 1 mM PMSF, 1× Halt™ protease inhibitor cocktail from ThermoFisher, cat. 78430 and 1× Halt™ phosphatase inhibitor cocktail from ThermoFisher, cat. 78426). Unlysed cells and debris were pelleted for 15 min at 16,000×g at 4° C. Samples were separated using SDS-PAGE and transferred to a polyvinylidene difluoride membrane. Transfer was performed using the iBlot2 system (Invitrogen). […]

[3] = tested on: HT-1080 cells; assay: Flow cytometry antibody staining without permeabilization; assay type: cell-based, human
Description: HT-1080 cells were treated with DMSO or 1 μM RSL3 for 4 h. The cells were harvested by 0.25% Trypsin-EDTA (1×) (Invitrogen 25200-114) and washed with HBSS once. The cells were resuspended in 5% goat serum (ThermoFisher 50197Z) for 30 min on ice. The cells were incubated with mAb 3F3 FMA (1:500 dilution), Transferrin Receptor/CD71 Monoclonal Antibody, Clone: H68.4, Invitrogen (Thermo Fisher Scientific Cat #13-6800, RRID:AB_2533029, 1:250 dilution), CD71 (3B8 2A1) (Santa Cruz Biotechnology Cat #sc-32272, RRID:AB_627167, 1:50 dilution), Anti-Malondialdehyde antibody (Abcam Cat #ab6463, RRID:AB_305484, 1:400 dilution), Anti-4 Hydroxynonenal antibody (Abcam Cat #ab46544, RRID:AB_722493, 1:50 dilution), and mouse mAb 1F83 (1:100 dilution), which specifically recognizes the malondialdehyde (MDA)-lysine adduct 4-methyl-1,4-dihydropyridine-3,5-dicarbaldehyde (MDHDC) (Yamada et al., 2001) for 1 h on ice. The cells were washed with HBSS for 5 min three times by centrifugation. […] Fluorescence intensity was measured on the FL1 channel with gating to record live cells only (gate constructed from DMSO treatment group). A minimum of 10,000 cells were analyzed per condition. […]

recognition of TfR1 in mouse GBM tumor samples [1]: able to recognize mouse TfR1 protein
B1: 3F3-FMA: murine monoclonal IgG1 raised against ferroptotic membrane fractions; antigen is human transferrin receptor protein 1 (TfR1) (antibody, V domains shown)
VH: EVLLQQSGTELVRPGALVKLSCKASGFNIQDLYIHWVKQRPEQGLEWIGWIDPETDNTIYDPKFQGKASITADTSSNTAYLQLSSLTSEDTAMYYCSTGLLQWYFDVWGAGTAVTVSS
VL: DIVMTQSPSSLAMSIGQKVTMRCKSSQSLLNSYNQKNCLAWYQQKPGQSPKLLLYFVSTRESGVPDRFIGSGSGTDFTLTISSVQAEDLADYFCQQHYSTPLTFGAGTKLELK
intensity of the bands in western blotting [2]: increased intensity of the bands | staining intensity in RSL3-treated cells by flow cytometry ([3]; 1 μM RSL3, 4 h vs DMSO): increased intensities | staining intensity in STS-induced apoptosis by flow cytometry ([3]; 1 μM STS, 6 h vs DMSO): decreased intensity; also recorded: decreased intensities
